The values that follow come from article PMC6769508.

Test [1] concerns the target SyKaiBDD, SyKaiB with Arg22 and Lys25 substituted with aspartate residues (Synechococcus elongatus PCC 7942) (UniProt Q79PF5).
Test [2] has as its target SyKaiB, wild-type KaiB of Synechococcus elongatus PCC 7942 (Synechococcus elongatus PCC 7942) (UniProt Q79PF5).

B1: SyKaiBDD, SyKaiB with Arg22 and Lys25 substituted with aspartate residues (natural protein)
chain: MSPRKTYILKLYVAGNTPNSVDALDTLKNILEVEFQGVYALKVIDVLKNPQLAEEDKILATPTLAKVLPLPVRRIIGDLSDREKVLIGLDLLYGELQDSDDF
Regarding B1, in test [1], the period of the in vitro oscillation of the phosphorylated KaiC level (SyKaiA 1.5 µM, SyKaiC 3.4 µM, SyKaiBDD 4.2 µM, 30 °C) is 30.4 h.

B2: SyKaiB, wild-type KaiB of Synechococcus elongatus PCC 7942 (natural protein)
chain: MSPRKTYILKLYVAGNTPNSVRALKTLKNILEVEFQGVYALKVIDVLKNPQLAEEDKILATPTLAKVLPLPVRRIIGDLSDREKVLIGLDLLYGELQDSDDF
Consider B2, for which, in test [2], the period of the in vitro oscillation of the phosphorylated KaiC level (SyKaiA 1.5 µM, SyKaiC 3.4 µM, SyKaiBWT 4.2 µM, 30 °C) was found to be 23.2 h.
